Experimental data from paper PMC9986795, “Structural basis of DNA binding by YdaT, a functional equivalent of the CII repressor in the cryptic prophage CP-933P from Escherichia coli O157:H7” (Acta Crystallographica. Section D, Structural Biology, 2023).

Biological target: the molecule itself
Assay: crystal structure; sitting drop, 0.1 M bis-Tris pH 5.5, 2.0 M ammonium sulfate, 19°C; free YdaT, a tetramer in the asymmetric unit, 2.4 Å

B1: YdaT from the cryptic prophage CP-933P of Escherichia coli O157:H7 (wild-type YdaT) (natural protein)
chain: KIKHEHIRMAMNVWAHPDGEKVPAAKITKAYFELGMTFPELYDDSHPEALARNTQKIFRWLDKDTPDAVEKMQALLPAIEKAMPPLLVARMRSHSSEYYREIVERRDRLVKDVDDFVASAVVLYDQMNRGGPAGNAVVMH
notes: YdaT, E. coli O157:H7 prophage CP-933P, open reading frame in pET-28b; also called CP-933P YdaT; full-length protein
- stoichiometry N: 4
